Common to all, as to assay: SPR; SPR (Biacore T100, CM5-neutravidin, 5'-biotin RNA immobilized): 10 mM HEPES pH 7.4, 150 mM NaCl, 3 mM EDTA, 0.005% P20; steady-state fit; temperature not stated
Settings in all cases: protein: recombinant; tags: 6xHis (C-terminal); label: 5' biotin; single strand

One data set addresses T1, AePiwi4 PAZ T41A (Aedes aegypti, UniProt Q171B3 270-380, T310A).
T1 sequence: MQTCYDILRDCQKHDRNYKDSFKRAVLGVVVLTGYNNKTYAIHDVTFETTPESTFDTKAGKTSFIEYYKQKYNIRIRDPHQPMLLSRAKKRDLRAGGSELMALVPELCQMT

Another data set has as its target T2, AePiwi4 PAZ Y40A (Aedes aegypti, UniProt Q171B3 270-380, Y309A).
T2 sequence: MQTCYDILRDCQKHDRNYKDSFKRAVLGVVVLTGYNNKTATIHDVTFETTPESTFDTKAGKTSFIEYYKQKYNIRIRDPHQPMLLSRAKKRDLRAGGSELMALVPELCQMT

The target of a further data set is T3, AePiwi4 PAZ T41R (Aedes aegypti, UniProt Q171B3 270-380, T310R).
T3 sequence: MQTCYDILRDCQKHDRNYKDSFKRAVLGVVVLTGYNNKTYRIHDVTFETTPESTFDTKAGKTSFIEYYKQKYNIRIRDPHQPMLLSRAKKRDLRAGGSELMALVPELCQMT

The target of the next data set is T4, AePiwi4 PAZ WT (Aedes aegypti, UniProt Q171B3 270-380).
T4 sequence: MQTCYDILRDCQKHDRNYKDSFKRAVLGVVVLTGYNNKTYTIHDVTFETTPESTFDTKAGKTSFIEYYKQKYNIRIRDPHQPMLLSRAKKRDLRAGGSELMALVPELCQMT

Another data set concerns the target T5, AePiwi4 PAZ T39A (Aedes aegypti, UniProt Q171B3 270-380, T308A).
T5 sequence: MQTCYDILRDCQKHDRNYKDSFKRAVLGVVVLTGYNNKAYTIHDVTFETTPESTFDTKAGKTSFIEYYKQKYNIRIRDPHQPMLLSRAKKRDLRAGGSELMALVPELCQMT

The target in another data set is T6, AePiwi4 PAZ F55A (Aedes aegypti, UniProt Q171B3 270-380, F324A).
T6 sequence: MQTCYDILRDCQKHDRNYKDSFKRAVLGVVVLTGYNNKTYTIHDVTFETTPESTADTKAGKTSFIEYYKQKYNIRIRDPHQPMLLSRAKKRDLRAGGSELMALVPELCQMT

What is called Kd is the constant that tells how readily two partners part at equilibrium.

B1: 3'nm 28 nt PCLV piRNA (ssRNA)
RNA: CGAUAAGUGAUCUUUCAGCACUGCAGAA
Regarding B1, the Kd in the data set with AePiwi4 PAZ T41A came out at 5600 ± 1200 nM; with AePiwi4 PAZ T41R, 2000 ± 500 nM; with AePiwi4 PAZ WT it was 5000 ± 2200 nM; with AePiwi4 PAZ T39A it was 2800 ± 400 nM. Also, the binding result in the data set with AePiwi4 PAZ Y40A and with AePiwi4 PAZ F55A was “no binding” in each case.

B2: 3'nm 28 nt scrambled RNA (ssRNA)
RNA: AUGAGGACAUAAGCCUACGUAGUAUUCC
Consider B2, for which the Kd with AePiwi4 PAZ WT amounted to 2500 ± 100 nM.

B3: 3'm 28 nt PCLV piRNA (ssRNA)
RNA: CGAUAAGUGAUCUUUCAGCACUGCAGAA
modifications: 3' terminal 2'-O-methyl
Take B3: the equilibrium dissociation constant (Kd) in the data set with AePiwi4 PAZ T41A amounted to 1400 ± 100 nM; in the data set with AePiwi4 PAZ Y40A it was 5500 ± 500 nM; with AePiwi4 PAZ T41R it was 570 ± 100 nM; with AePiwi4 PAZ WT, 1700 ± 800 nM; with AePiwi4 PAZ T39A it was 980 ± 200 nM. In addition, in the data set with AePiwi4 PAZ F55A, the binding result is “no binding”.

(Values after paper PMC8657434, “Aedes aegypti Piwi4 Structural Features Are Necessary for RNA Binding and Nuclear Localization”.)
